As usually defined, the stoichiometry N is a count of units in the complex or per binding partner.

This passage reports binding and stoichiometry N results from publication PMC7613265.

Data set [1] deals with RNase E (1-850), catalytically inactive, truncated degradosome scaffold;RhlB;Enolase D303N;D346N (Escherichia coli;Escherichia coli;Escherichia coli) (UniProt P21513+P0A8J8+P0A6P9). The experiment in a line: SEC-SAXS. The settings on record: SEC-SAXS buffer not given in the material. EMSA (30S ribosomal subunit, not listed because it is a ribonucleoprotein): 40 mM Tris-HCl pH 7.5, 100 mM NaCl …. (In general: SEC sorts molecules by how far they enter the pores of the column.)

The target of data set [2] is RNase E (1-850) (E. coli) (UniProt P21513). The experiment in a line: AUC; sedimentation velocity, truncated degradosome at 4 mg/ml in buffer S6 (50 mM Tris-HCl pH 7.5, 400 mM NaCl, 100 mM KCl, 5 mM MgCl2, 1 mM TCEP, 0.02% beta-DDM, 10% glycerol), 4 C.

As for “GAAGCUGUUUUGGCGGAUGAGAGAAGAUUUUCAGCCUGAUACAGAUUAAAUCAGAACGCAGAAGCGGUCUGAUAAAACAGAAUUUGCCUGGCGGCAGUAGCGCGGUGGUCCCACCUGACCCCAUGCCGAACUCAGAAGUGAAACGCCGUAGCGCCGAUGGUAGUGUGGGGUCUCCCCAUGCGAGAGUAGGGAACUGCCAGGCAUCAAAUAAAACGAAAGGCUCAGUCGAAAGACUGGGCCUUUCG [9S RNA (5S rRNA precursor)]”, the binding result in data set [1] is listed as “binds”.

“RNase E (1-850) (from UniProt P21513 1-850) (domain or fragment)” returned a stoichiometry N in data set [2] of 4.
